From patent publication US20240083948A1 (ADVANCED TECHNOLOGIES FOR NOVEL THERAPEUTICS, published 2024)

How the values were obtained:
Test in all cases: cell-based or functional assay
[1] = target: JAK3 (UniProt P52333 781-1124, limits assumed)
[2] = target: T1, SGK (SGK1) (UniProt O00141 60-431, limits assumed)
T1 sequence (looked up): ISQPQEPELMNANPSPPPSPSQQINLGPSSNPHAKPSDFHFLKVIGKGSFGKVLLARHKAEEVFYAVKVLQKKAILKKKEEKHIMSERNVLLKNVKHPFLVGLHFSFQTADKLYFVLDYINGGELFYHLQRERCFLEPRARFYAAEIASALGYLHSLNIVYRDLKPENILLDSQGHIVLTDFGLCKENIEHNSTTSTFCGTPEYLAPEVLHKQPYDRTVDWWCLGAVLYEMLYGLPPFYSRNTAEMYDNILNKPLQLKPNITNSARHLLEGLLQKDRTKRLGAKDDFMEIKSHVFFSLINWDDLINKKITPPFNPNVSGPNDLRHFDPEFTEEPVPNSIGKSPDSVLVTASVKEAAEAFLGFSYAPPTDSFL

[3] = target: AKT2 (PKB beta) (UniProt P31751 1-481, limits assumed)
AKT2 (PKB beta), sequence (P31751 whole entry): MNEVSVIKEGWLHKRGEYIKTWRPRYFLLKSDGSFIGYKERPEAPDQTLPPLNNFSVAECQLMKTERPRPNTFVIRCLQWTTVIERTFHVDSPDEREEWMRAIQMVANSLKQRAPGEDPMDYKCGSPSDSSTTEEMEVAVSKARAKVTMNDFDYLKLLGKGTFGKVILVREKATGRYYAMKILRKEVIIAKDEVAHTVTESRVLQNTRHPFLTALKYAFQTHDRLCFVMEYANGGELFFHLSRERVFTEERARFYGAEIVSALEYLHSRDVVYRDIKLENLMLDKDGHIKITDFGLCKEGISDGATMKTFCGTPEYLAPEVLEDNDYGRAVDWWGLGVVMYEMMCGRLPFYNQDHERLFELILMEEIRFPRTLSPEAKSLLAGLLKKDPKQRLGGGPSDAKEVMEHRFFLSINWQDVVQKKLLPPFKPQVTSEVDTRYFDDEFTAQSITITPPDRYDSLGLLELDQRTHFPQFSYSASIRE

[4] = target: Abl (UniProt P00519 27-1130, limits assumed)
Abl, sequence (P00519 27-1130 limits assumed): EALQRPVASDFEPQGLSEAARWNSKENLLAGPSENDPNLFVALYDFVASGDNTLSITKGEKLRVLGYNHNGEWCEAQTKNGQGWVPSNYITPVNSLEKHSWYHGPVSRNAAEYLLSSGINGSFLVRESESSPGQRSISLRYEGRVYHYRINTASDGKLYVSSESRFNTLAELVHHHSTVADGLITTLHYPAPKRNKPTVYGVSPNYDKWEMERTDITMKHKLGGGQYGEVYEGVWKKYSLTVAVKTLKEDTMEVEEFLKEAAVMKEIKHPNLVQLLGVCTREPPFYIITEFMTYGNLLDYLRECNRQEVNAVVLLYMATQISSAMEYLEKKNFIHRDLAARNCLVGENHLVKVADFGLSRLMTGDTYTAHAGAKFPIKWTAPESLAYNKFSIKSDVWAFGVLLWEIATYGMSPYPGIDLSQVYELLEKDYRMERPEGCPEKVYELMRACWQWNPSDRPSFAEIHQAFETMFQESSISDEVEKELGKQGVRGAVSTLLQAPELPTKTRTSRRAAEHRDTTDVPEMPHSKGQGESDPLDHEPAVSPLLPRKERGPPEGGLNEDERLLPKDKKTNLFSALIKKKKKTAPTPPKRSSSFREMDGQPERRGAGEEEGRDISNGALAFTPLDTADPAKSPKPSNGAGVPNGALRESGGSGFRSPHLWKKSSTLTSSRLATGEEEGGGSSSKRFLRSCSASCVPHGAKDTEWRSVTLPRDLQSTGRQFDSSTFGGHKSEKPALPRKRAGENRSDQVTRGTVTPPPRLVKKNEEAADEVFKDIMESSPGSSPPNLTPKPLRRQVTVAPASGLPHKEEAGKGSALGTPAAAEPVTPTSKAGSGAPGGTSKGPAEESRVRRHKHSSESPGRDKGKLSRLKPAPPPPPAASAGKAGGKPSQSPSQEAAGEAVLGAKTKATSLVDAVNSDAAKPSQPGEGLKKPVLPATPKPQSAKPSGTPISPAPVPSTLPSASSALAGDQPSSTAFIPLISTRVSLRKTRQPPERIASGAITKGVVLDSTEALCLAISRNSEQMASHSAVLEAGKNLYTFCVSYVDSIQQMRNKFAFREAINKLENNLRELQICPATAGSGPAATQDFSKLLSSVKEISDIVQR

[5] = target: T2, PI3Kδ (UniProt O00329 1-1044, limits assumed)
T2 sequence (looked up): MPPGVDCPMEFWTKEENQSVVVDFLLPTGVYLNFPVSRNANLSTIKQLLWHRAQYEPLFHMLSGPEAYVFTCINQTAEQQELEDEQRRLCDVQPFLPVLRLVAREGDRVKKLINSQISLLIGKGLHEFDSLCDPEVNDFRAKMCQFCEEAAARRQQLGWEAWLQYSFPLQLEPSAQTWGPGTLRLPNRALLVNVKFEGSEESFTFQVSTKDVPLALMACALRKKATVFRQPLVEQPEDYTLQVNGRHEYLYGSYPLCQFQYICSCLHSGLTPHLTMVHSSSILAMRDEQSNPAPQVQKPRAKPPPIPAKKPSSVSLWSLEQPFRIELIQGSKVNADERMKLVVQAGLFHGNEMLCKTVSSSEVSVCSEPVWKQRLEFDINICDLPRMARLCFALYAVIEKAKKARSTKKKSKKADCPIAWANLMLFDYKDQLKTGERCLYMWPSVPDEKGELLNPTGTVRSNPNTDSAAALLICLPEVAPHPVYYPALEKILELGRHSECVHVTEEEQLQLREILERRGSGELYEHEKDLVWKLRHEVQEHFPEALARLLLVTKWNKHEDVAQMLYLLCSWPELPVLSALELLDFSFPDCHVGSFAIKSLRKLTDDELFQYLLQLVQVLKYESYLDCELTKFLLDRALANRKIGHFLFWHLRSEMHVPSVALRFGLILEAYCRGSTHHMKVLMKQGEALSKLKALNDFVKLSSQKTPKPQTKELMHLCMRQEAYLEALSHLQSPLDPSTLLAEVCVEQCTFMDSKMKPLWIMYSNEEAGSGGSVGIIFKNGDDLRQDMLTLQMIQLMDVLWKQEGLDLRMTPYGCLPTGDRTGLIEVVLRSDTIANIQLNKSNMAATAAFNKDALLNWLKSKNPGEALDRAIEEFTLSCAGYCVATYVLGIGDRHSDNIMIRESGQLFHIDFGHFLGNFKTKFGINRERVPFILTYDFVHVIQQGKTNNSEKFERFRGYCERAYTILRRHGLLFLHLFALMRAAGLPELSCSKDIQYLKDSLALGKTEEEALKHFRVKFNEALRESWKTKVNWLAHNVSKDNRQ

[6] = target: PAK3 (UniProt O75914 1-559, limits assumed)
PAK3, sequence (O75914 whole entry): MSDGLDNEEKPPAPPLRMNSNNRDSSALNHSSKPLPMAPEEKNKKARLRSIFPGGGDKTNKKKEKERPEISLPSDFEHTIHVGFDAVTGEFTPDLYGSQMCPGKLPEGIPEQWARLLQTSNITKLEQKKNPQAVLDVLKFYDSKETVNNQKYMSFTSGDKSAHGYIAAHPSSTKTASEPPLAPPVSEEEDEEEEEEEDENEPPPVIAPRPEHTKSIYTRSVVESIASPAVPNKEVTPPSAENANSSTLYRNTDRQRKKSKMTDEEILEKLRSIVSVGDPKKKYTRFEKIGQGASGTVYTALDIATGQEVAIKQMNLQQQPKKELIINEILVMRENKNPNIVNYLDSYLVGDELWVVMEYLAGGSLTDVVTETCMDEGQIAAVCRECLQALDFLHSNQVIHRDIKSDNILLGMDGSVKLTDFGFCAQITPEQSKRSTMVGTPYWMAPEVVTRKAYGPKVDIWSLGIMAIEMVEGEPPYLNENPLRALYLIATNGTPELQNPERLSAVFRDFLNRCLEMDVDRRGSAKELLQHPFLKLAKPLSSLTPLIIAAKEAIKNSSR

[7] = target: AKT1 (PKB alpha), active (UniProt P31749 1-480, limits assumed)
AKT1 (PKB alpha), active, sequence (P31749 whole entry): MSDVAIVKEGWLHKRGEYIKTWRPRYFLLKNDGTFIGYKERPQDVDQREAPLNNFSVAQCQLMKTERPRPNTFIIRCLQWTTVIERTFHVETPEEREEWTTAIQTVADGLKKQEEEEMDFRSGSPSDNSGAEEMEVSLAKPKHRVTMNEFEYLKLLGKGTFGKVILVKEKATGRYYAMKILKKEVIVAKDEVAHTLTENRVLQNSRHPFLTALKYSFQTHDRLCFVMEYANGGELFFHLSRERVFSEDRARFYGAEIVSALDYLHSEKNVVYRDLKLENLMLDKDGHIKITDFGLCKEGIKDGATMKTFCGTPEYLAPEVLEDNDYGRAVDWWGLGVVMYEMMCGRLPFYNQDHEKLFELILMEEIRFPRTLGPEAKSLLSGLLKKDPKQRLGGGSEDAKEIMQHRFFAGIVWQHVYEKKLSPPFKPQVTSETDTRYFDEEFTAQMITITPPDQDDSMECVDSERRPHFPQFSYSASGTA

[8] = target: TrkB (UniProt Q16620 455-822, limits assumed)
TrkB, sequence (Q16620 455-822 limits assumed): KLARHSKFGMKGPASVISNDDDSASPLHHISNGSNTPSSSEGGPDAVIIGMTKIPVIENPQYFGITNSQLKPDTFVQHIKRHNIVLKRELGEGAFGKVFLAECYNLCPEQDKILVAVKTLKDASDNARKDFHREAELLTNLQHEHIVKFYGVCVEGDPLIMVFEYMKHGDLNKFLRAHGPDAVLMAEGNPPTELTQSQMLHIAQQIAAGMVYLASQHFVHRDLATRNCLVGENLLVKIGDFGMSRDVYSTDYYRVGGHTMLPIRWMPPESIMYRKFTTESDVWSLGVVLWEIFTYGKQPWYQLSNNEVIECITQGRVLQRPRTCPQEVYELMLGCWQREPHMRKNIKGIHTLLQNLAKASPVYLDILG

[9] = target: RPS6KB1 (p70S6K) (UniProt P23443 1-421, limits assumed)
RPS6KB1 (p70S6K), sequence (P23443 1-421 limits assumed): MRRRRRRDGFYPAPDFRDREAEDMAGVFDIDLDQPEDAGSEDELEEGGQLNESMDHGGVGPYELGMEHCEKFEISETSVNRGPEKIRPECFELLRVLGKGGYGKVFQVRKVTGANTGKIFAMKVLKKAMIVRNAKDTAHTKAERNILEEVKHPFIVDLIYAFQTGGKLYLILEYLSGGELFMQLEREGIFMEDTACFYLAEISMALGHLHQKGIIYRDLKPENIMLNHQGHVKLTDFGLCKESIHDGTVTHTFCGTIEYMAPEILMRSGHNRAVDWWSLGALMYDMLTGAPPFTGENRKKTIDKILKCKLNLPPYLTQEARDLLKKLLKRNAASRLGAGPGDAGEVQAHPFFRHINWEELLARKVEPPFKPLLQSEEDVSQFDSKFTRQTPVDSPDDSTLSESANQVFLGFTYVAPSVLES

JAK3, sequence (P52333 781-1124 limits assumed): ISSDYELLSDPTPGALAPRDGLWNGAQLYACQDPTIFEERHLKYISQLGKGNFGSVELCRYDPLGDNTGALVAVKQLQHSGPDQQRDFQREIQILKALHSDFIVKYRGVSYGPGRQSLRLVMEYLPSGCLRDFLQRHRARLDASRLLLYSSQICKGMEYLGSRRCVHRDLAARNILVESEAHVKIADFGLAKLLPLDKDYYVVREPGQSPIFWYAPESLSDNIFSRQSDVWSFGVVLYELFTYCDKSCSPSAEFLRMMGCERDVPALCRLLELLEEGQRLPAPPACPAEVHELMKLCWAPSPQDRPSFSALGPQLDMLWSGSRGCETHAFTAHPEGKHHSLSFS

B1: ZaTa peptide (Ala-Lys-Arg-Val-Lys-Gly-Arg-Thr-Trp-Thr-Leu-Cys-Gly-Thr-Pro-Glu-Tyr) (peptide)
peptide: AKRVKGRTWTLCGTPEY
With B1 the “in vitro kinase assay at ten times the IC50 for AKT1, percent inhibited” value (shortened to “in vitro kinase assay … percent inhibited”) [1] was 79%, the “in vitro kinase assay … percent inhibited” value [2] was 73% and the “in vitro kinase assay … percent inhibited” value [3] was 63%. For the same binder, the “in vitro kinase assay … percent inhibited” value [4] was 42%, the “in vitro kinase assay … percent inhibited” value [5] was 72% and the “in vitro kinase assay … percent inhibited” value [6] was 83%. The “IC50, AKT1 in vitro catalytic activity (incorporation of γ-32P into Ser-21 GSK-3β substrate peptide)” value [7] was about 100 nM, the “in vitro kinase assay … percent inhibited” value [8] was 84% and the “in vitro kinase assay … percent inhibited” value [9] was 64%.
